The source of these data is US20180305450A1 (AstraZeneca / MedImmune, published 2018).

Assay [1] concerns the target T1, recombinant biotinylated human PAR2 extracellular domain (residues 1-75), N-terminal AviTag, C-terminal Flag … (human, UniProt P55085 26-75, biotin on the AviTag (enzymatic biotinylation)).
T1 construct: also called Bio-human-PAR2 ECD; human PAR2 ECD; not shown: N-terminal AviTag (Avidity LLC); C-terminal Flag and poly Histidine tags
Kind of assay: HTRF competition with Par0067 IgG, pH 6.0, scFv. How it is done:
(§1) 5 μl/well of the appropriate pH 4.44 nM Par0067 IgG solution was added to all wells of the relevant assay plate (pH 7.4 and pH 6.0).
(§2) Test scFv Preparation/Addition: [0172] a) For parallel single point HTS of crude un-purified bacterial lysate scFv samples at both pH 7.4 and pH 6.0 samples were first pre-diluted to 40% of their neat concentration using either pH 7.4 or pH 6.0 assay buffer as appropriate. Subsequently 5 μl of 40% pre-diluted sample was then transferred into the appropriate assay (pH 7.4 or pH 6.0) in order to give a final assay sample concentration of 10.0% (in the 20 μl final assay volume). The parent Par0067 scFv was included in all HTS experiments as a control as were specific pH dependent antibodies as those became available (for benchmarking). […] Duplicate 11 point 1:3 serial dilutions then were prepared on 384 well polypropylene Greiner plates in each of the two assay buffers (pH 7.4 & 6.0). 5 μl per well of each serial dilution was transferred from the relevant pH scFv dilution plate to the corresponding assay plate (pH 7.4 and pH 6.0). 5 μl of the appropriate pH assay buffer was added to the total and non-specific wells. The parent Par0067 purified scFv was included in all multipoint dose response IC₅₀ experiments as a control as were specific pH dependent purified scFv as those became available (for benchmarking).
(§3) For multipoint dose response curves % Specific Binding values were plotted versus test purified antibody concentration (scFv or IgG). IC₅₀ values were determined via a sigmoidal dose response inhibition variable slope curve fit (4 parameter logistic equation) using Graphpad Prism Software.
A general note: Time-resolved FRET reads energy transfer from a long-lived donor to a nearby acceptor.

Assay [2] has as its target T1, recombinant biotinylated human PAR2 …. Kind of assay: HTRF competition with Par0067 IgG, pH 7.4, scFv. As for the experimental part: as §1, §2, §3
Assay [3] has the same target. The assay can be described thus: HTRF competition with Par0067 IgG, scFv. How it is done: as §1, §2, §3

T1 sequence (P55085 26-75): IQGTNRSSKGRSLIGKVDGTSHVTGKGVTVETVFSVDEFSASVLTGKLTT

B1: PaB670098 scFv (scFv, V domains shown)
VH: EVQLLESGGGLVQPGGSLRLSCAASGFTFSSYAMNWVRQAPGKGLEWVSTISHSGHLHHYADSHKHRFTISRDNSKNTLYLQMNSLRAEDTAVYYCARINNDPMDVWGQGTLVTVSS
VL: SIELTQPPSVSVSPGQTASITCSGDNLGKKYVQWYQQKPGQSPVLVIYDDSNRPSGIPERFSGSNSGNTATLTISGTQAMDEADYYCQTWDGNPTTGETNVFGGGTKLTVL
notes: purified scFv; also called ZZ1ODT-G01
A word on the IC50: it is the concentration that inhibits the measured activity by half. Consider B1, for which, in assay [1], the IC50 is 210 nM. The half-inhibitory concentration (IC50) in assay [2] was found to be 65.9 nM. Further, in assay [3], the “Fold IC50 (pH 6.0 v pH 7.4)” value was 3.2 fold and the “Fold IC50 pH 7.4 (Variant v Par0067)” value was found to be 20 fold.

B2: Par0067 scFv (scFv, V domains shown)
VH: EVQLLESGGGLVQPGGSLRLSCAASGFTFSSYAMNWVRQAPGKGLEWVSTISYSGSLISYADSVKGRFTISRDNSKNTLYLQMNSLRAEDTAVYYCARINNDPMDVWGQGTLVTVSS
VL: SIELTQPPSVSVSPGQTASITCSGDNLGKKYVQWYQQKPGQSPVLVIYDDSNRPSGIPERFSGSNSGNTATLTISGTQAMDEADYYCQTWDGNPTTGETNVFGGGTKLTVL
notes: purified scFv, parent clone; also called ZZ15D2-D02
As to B2, in assay [1], the IC50 turned out to be 3.6 nM. In addition, the IC50 in assay [2] was determined as 3.3 nM. Also, in assay [3], the “Fold IC50 (pH 6.0 v pH 7.4)” value came to 1.1 fold and the “Fold IC50 pH 7.4 (Variant v Par0067)” value stood at 1 fold.

B3: PaB670108 scFv (scFv, V domains shown)
VH: EVQLLESGGGLVQPGGSLRLSCAASGFTFSSYAMNWVRQAPGKGLEWVSTISYSGSLISYADSVKGRFTISRDNSKNTLYLQMNSLRAEDTAVYYCARINNDPMDVWGQGTLVTVSS
VL: SIELTQPPSVSVSPGQTASITCSGDNLGKKYVQWYQQKPGQSPVLVIYDDSNRPSGIPERFSGSNSGNTATLTISGTQAMDEADYYCQHWHGHHHTGETNVFGGGTKLTVL
notes: purified scFv; also called ZZ1RD3-H03
B3: the IC50 in assay [1] came to 149 nM. In assay [2], the 50% inhibitory concentration (IC50) is 29.1 nM. In addition, in assay [3], the “Fold IC50 (pH 6.0 v pH 7.4)” value turned out to be 5.1 fold and the “Fold IC50 pH 7.4 (Variant v Par0067)” value turned out to be 8.8 fold.

B4: PaB670106 scFv (scFv, V domains shown)
VH: EVQLLESGGGLVQPGGSLRLSCAASGFTFSSYAMNWVRQAPGKGLEWVSTISYSGSLISYADSVKGRFTISRDNSKNTLYLQMNSLRAEDTAVYYCARINNDPMDVWGQGTLVTVSS
VL: SIELTQPPSVSVSPGQTASITCSGDNLGKKYVQWYQQKPGQSPVLVIYDDSNRPSGIPERFSGSNSGNTATLTISGTQAMDEADYYCHTWDHNPHHHHTNHFGGGTKLTVL
notes: purified scFv; also called ZZ1RD0-G02
Consider B4, for which the IC50 in assay [1] is 1190 nM; in assay [2] it was 313 nM. Also, the “Fold IC50 (pH 6.0 v pH 7.4)” value in assay [3] was found to be 3.8 fold. In assay [3], the “Fold IC50 pH 7.4 (Variant v Par0067)” value worked out at 94.8 fold.

B5: PaB670105 scFv (scFv, V domains shown)
VH: EVQLLESGGGLVQPGGSLRLSCAASGFTFSSYAMNWVRQAPGKGLEWVSTISYSGSLISYADSVKGRFTISRDNSKNTLYLQMNSLRAEDTAVYYCARINNDPMDVWGQGTLVTVSS
VL: SIELTQPPSVSVSPGQTASITCSGDNLGKKYVQWYQQKPGQSPVLVIYDDSNRPSGIPERFSGSNSGNTATLTISGTQAMDEADYYCQHWHGNPHTGEHNHFGGGTKLTVL
notes: purified scFv; also called ZZ1RD0-D01
Take B5: the IC50 in assay [1] came to 496 nM. Also, the IC50 in assay [2] worked out at 74.4 nM. For the same molecule, in assay [3], the “Fold IC50 (pH 6.0 v pH 7.4)” value was determined as 6.7 fold and the “Fold IC50 pH 7.4 (Variant v Par0067)” value was determined as 22.5 fold.

B6: PaB670104 scFv (scFv, V domains shown)
VH: EVQLLESGGGLVQPGGSLRLSCAASGFTFSSYAMNWVRQAPGKGLEWVSTISYSGSLISYADSVKGRFTISRDNSKNTLYLQMNSLRAEDTAVYYCARINNDPMDVWGQGTLVTVSS
VL: SIELTQPPSVSVSPGQTASITCSGDNLGKKYVQWYQQKPGQSPVLVIYDDSNRPSGIPERFSGSNSGNTATLTISGTQAMDEADYYCQHWDGHHHTGETNVFGGGTKLTVL
notes: purified scFv
For the molecule B6, the half-inhibitory concentration (IC50) in assay [1] was 202 nM. Further, the IC50 in assay [2] is 21.7 nM. Also, in assay [3], the “Fold IC50 (pH 6.0 v pH 7.4)” value was found to be 9.3 fold and the “Fold IC50 pH 7.4 (Variant v Par0067)” value is 6.6 fold.

B7: PaB670100 scFv (scFv, V domains shown)
VH: EVQLLESGGGLVQPGGSLRLSCAASGFTFSSYAMNWVRQAPGKGLEWVSTISYHGHHISHAHHVHGRFTISRDNSKNTLYLQMNSLRAEDTAVYYCARINNDPMDVWGQGTLVTVSS
VL: SIELTQPPSVSVSPGQTASITCSGDNLGKKYVQWYQQKPGQSPVLVIYDDSNRPSGIPERFSGSNSGNTATLTISGTQAMDEADYYCQTWDGNPTTGETNVFGGGTKLTVL
notes: purified scFv
B7: the IC50 in assay [1] is 69 nM; in assay [2], 20.3 nM. The “Fold IC50 (pH 6.0 v pH 7.4)” value in assay [3] stood at 3.4 fold. Further, in assay [3], the “Fold IC50 pH 7.4 (Variant v Par0067)” value amounted to 6.2 fold.

B8: PaB670107 scFv (scFv, V domains shown)
VH: EVQLLESGGGLVQPGGSLRLSCAASGFTFSSYAMNWVRQAPGKGLEWVSTISYSGSLISYADSVKGRFTISRDNSKNTLYLQMNSLRAEDTAVYYCARINNDPMDVWGQGTLVTVSS
VL: SIELTQPPSVSVSPGQTASITCSGDNLGKKYVQWYQQKPGQSPVLVIYDDSNRPSGIPERFSGSNSGNTATLTISGTQAMDEADYYCHHWHHNPTHHETNVFGGGTKLTVL
notes: purified scFv; also called ZZ1RD3-D09
As for B8, the IC50 in assay [1] came out at 464 nM. Moreover, the IC50 in assay [2] amounted to 42.7 nM. In assay [3], the “Fold IC50 (pH 6.0 v pH 7.4)” value is 10.9 fold and the “Fold IC50 pH 7.4 (Variant v Par0067)” value came out at 12.9 fold.

B9: PaB670099 scFv (scFv, V domains shown)
VH: EVQLLESGGGLVQPGGSLRLSCAASGFTFSSYAMNWVRQAPGKGLEWVSTISYHGSHISYHDSVHHRFTISRDNSKNTLYLQMNSLRAEDTAVYYCARINNDPMDVWGQGTLVTVSS
VL: SIELTQPPSVSVSPGQTASITCSGDNLGKKYVQWYQQKPGQSPVLVIYDDSNRPSGIPERFSGSNSGNTATLTISGTQAMDEADYYCQTWDGNPTTGETNVFGGGTKLTVL
notes: purified scFv
With B9, the IC50 in assay [1] stood at 62.4 nM. The IC50 in assay [2] was determined as 12.9 nM. In addition, in assay [3], the “Fold IC50 (pH 6.0 v pH 7.4)” value came to 4.8 fold and the “Fold IC50 pH 7.4 (Variant v Par0067)” value turned out to be 3.9 fold.

B10: PaB670103 scFv (scFv, V domains shown)
VH: EVQLLESGGGLVQPGGSLRLSCAASGFTFSSYAMNWVRQAPGKGLEWVSTISYSGSLISYADSVKGRFTISRDNSKNTLYLQMNSLRAEDTAVYYCARINNDPMDVWGQGTLVTVSS
VL: SIELTQPPSVSVSPGQTASITCSGDNLGKKYVQWYQQKPGQSPVLVIYDDSNRPSGIPERFSGSNSGNTATLTISGTQAMDEADYYCHTWDGHHTTGETNHFGGGTKLTVL
notes: purified scFv; also called ZZ1RCX-C09
In the case of B10, the half-inhibitory concentration (IC50) in assay [1] stood at 204 nM. Further, the IC50 in assay [2] came to 27.9 nM. Moreover, in assay [3], the “Fold IC50 (pH 6.0 v pH 7.4)” value is 7.3 fold and the “Fold IC50 pH 7.4 (Variant v Par0067)” value amounted to 8.5 fold.

B11: PaB670101 scFv (scFv, V domains shown)
VH: EVQLLESGGGLVQPGGSLRLSCAASGFTFSSYAMNWVRQAPGKGLEWVSTISYSGSLISYADSVKGRFTISRDNSKNTLYLQMNSLRAEDTAVYYCARIHHHPHDHWGQGTLVTVSS
VL: SIELTQPPSVSVSPGQTASITCSGDNLGKKYVQWYQQKPGQSPVLVIYDDSNRPSGIPERFSGSNSGNTATLTISGTQAMDEADYYCQTWDGNPTTGETNVFGGGTKLTVL
notes: purified scFv; also called ZZ1ODO-H01
As to B11, the IC50 in assay [1] is 496 nM; in assay [2] it was 147 nM. For the same molecule, the “Fold IC50 (pH 6.0 v pH 7.4)” value in assay [3] was 3.4 fold. In assay [3], the “Fold IC50 pH 7.4 (Variant v Par0067)” value amounted to 44.5 fold.

B12: PaB670102 scFv (scFv, V domains shown)
VH: EVQLLESGGGLVQPGGSLRLSCAASGFTFSSYAMNWVRQAPGKGLEWVSTISYSGSLISYADSVKGRFTISRDNSKNTLYLQMNSLRAEDTAVYYCARINHDPMDHWGQGTLVTVSS
VL: SIELTQPPSVSVSPGQTASITCSGDNLGKKYVQWYQQKPGQSPVLVIYDDSNRPSGIPERFSGSNSGNTATLTISGTQAMDEADYYCQTWDGNPTTGETNVFGGGTKLTVL
notes: purified scFv; also called ZZ1PXS-F08
In the case of B12, the results for the IC50 in assay [1] and in assay [2] were 13.7 nM and 5.3 nM, respectively. The “Fold IC50 (pH 6.0 v pH 7.4)” value in assay [3] was 2.6 fold. Further, the “Fold IC50 pH 7.4 (Variant v Par0067)” value in assay [3] stood at 1.6 fold.
